Experimental data published in PMC9128377.
Like-named read-outs stand apart in the source and are kept apart here.

B1: U9 G4 (ssRNA)
RNA: UUUGUUUUU
B2: U9 A5 (ssRNA)
RNA: UUUUAUUUU
B3: U9 G5 (ssRNA)
RNA: UUUUGUUUU
B4: U9 G6 (ssRNA)
RNA: UUUUUGUUU
B5: U9 C5 (ssRNA)
RNA: UUUUCUUUU

Key:
Experiment in all cases: fluorescence anisotropy
U2AF2 12L (RRM1-RRM2) [1] = molecular target: T1, U2AF2 12L (RRM1-RRM2) (UniProt P26368 141-342)
U2AF2 12L G297D [2] = molecular target: T2, U2AF2 12L G297D (UniProt P26368 141-342, G297D)
T2 sequence (P26368 141-342 G297D): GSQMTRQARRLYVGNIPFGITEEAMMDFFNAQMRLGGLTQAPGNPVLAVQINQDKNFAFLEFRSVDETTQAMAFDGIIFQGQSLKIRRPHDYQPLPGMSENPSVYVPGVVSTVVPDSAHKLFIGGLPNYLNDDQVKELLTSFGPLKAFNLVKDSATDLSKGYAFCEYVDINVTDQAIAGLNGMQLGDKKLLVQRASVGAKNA

U2AF2 12L K225N = U2AF2 12L K225N (UniProt P26368 141-342, K225N)
U2AF2 12L K225N, sequence (P26368 141-342 K225N): as the sequence (P26368 141-342 G297D) above, with K85N, D157G counted along it

U2AF2 12L R227N = U2AF2 12L R227N (UniProt P26368 141-342, R227N)
U2AF2 12L R227N, sequence (P26368 141-342 R227N): as the sequence (P26368 141-342 G297D) above, with R87N, D157G counted along it

U2AF2 12L (RRM1-RRM2) [3] = molecular target: T1, U2AF2 12L (RRM1-RRM2); remark: listed apart in the source
U2AF2 12L G297D [4] = molecular target: T2, U2AF2 12L G297D; remark: listed apart in the source
U2AF2 12L (RRM1-RRM2) [5] = molecular target: T1, U2AF2 12L (RRM1-RRM2); remark: listed apart in the source

T1 sequence (P26368 141-342): as the sequence (P26368 141-342 G297D) above, with D157G counted along it

| Binder | binding signal (U2AF2 12L (RRM1-RRM2) [1]) [fold Kd increase vs N5] | binding signal (U2AF2 12L G297D [2]) [fold penalty] | binding signal (U2AF2 12L K225N) [fold penalty] | binding signal (U2AF2 12L R227N) [fold penalty] | further results |
| --- | --- | --- | --- | --- | --- |
| B1 | ~3 |  |  |  |  |
| B2 |  | ~2 | > 5 | > 5 |  |
| B3 |  | ~2 | > 5 | > 5 | binding signal (U2AF2 12L (RRM1-RRM2) [3]): < 2 fold Kd increase vs N5 |
| B4 | ~3 |  |  |  |  |
| B5 |  |  |  |  | binding signal (U2AF2 12L G297D [4]): ~2 fold penalty; binding result (U2AF2 12L (RRM1-RRM2) [5]): binds |
